# Assay results from patent publication US12428633B2, “Inducible dimerization of recombinases” (TRUSTEES OF BOSTON UNIVERSITY, priority 2016, dated 2025).
# B1: VCre 172: VCre (SEQ ID NO: 16) split into aa 1-172 and 173-380, fused to CIDD pair (protein)
# chain: MIENQLSLLGDFSGVRPDDVKTAIQAAQKKGINVAENEQFKAAFEHLLNEFKKREERYSPNTLRRLESAWTCFVDWCLANHRHSLPATPDTVEAFFIERAEELHRNTLSVYRWAISRVHRVAGCPDPCLDIYVEDRLKAIARKKVREGEAVKQASPFNEQHLLKLTSLWYRSDKLLLRRNLALLAVAYESMLRASELANIRVSDMELAGDGTAILTIPITKTNHSGEPDTCILSQDVVSLLMDYTEAGKLDMSSDGFLFVGVSKHNTCIKPKKDKQTGEVLHKPITTKTVEGVFYSAWETLDLGRQGVKPFTAHSARVGAAQDLLKKGYNTLQIQQSGRWSSGAMVARYGRAILARDGAMAHSRVKTRSAPMQWGKDEKD
# modifications: split at 172/173; CIDD pair fusions lack entries
# B2: VCre 82: VCre (SEQ ID NO: 16) split into aa 1-82 and 83-380, fused to CIDD pair (protein)
# chain: B1 chain
# modifications: split at 82/83; CIDD pair fusions lack entries
# B3: VCre 269: VCre (SEQ ID NO: 16) split into aa 1-269 and 270-380, fused to CIDD pair (protein)
# chain: B1 chain
# modifications: split at 269/270; CIDD pair fusions lack entries
# B4: VCre 277: VCre (SEQ ID NO: 16) split into aa 1-277 and 278-380, fused to CIDD pair (protein)
# chain: B1 chain
# modifications: split at 277/278; CIDD pair fusions lack entries
# B5: Flp 374: Flp (SEQ ID NO: 1) split into aa 1-374 and 375-423, fused to CIDD pair (protein)
# chain 1: MSQFDILCKTPPKVLVRQFVERFERPSGEKIASCAAELTYLCWMITHNGTAIKRATFMSYNTIISNSLSFDIVNKSLQFKYKTQKATILEASLKKLIPAWEFTIIPYNGQKHQSDITDIVSSLQLQFESSEEADKGNSHSKKMLKALLSEGESIWEITEKILNSFEYTSRFTKTKTLYQFLFLATFINCGRFSDIKNVDPKSFKLVQNKYLGVIIQCLVTETKTSVSRHIYFFSARGRIDPLVYLDEFLRNSEPVLKRVNRTGNSSSNKQEYQLLKDNLVRSYNKALKKNAPYPIFAIKNGPKSHIGRHLMTSFLSMKGLTELTNVVGNWSDKRASAVARTTYTHQITAIPDHYFALVSRYYAYDPISKEMIAL
# chain 2: KDETNPIEEWQHIEQLKGSAEGSIRYPAWNGIISQEVLDYLSSYINRRI
# modifications: fused to CIDD pair
# B6: Flp 396: Flp (SEQ ID NO: 1) split into aa 1-396 and 397-423, fused to CIDD pair (protein)
# chain 1: MSQFDILCKTPPKVLVRQFVERFERPSGEKIASCAAELTYLCWMITHNGTAIKRATFMSYNTIISNSLSFDIVNKSLQFKYKTQKATILEASLKKLIPAWEFTIIPYNGQKHQSDITDIVSSLQLQFESSEEADKGNSHSKKMLKALLSEGESIWEITEKILNSFEYTSRFTKTKTLYQFLFLATFINCGRFSDIKNVDPKSFKLVQNKYLGVIIQCLVTETKTSVSRHIYFFSARGRIDPLVYLDEFLRNSEPVLKRVNRTGNSSSNKQEYQLLKDNLVRSYNKALKKNAPYPIFAIKNGPKSHIGRHLMTSFLSMKGLTELTNVVGNWSDKRASAVARTTYTHQITAIPDHYFALVSRYYAYDPISKEMIALKDETNPIEEWQHIEQLKGSAEG
# chain 2: SIRYPAWNGIISQEVLDYLSSYINRRI
# modifications: fused to CIDD pair
# B7: Flp 168: Flp (SEQ ID NO: 1) split into aa 1-168 and 169-423, fused to CIDD pair (protein)
# chain 1: MSQFDILCKTPPKVLVRQFVERFERPSGEKIASCAAELTYLCWMITHNGTAIKRATFMSYNTIISNSLSFDIVNKSLQFKYKTQKATILEASLKKLIPAWEFTIIPYNGQKHQSDITDIVSSLQLQFESSEEADKGNSHSKKMLKALLSEGESIWEITEKILNSFEYT
# chain 2: SRFTKTKTLYQFLFLATFINCGRFSDIKNVDPKSFKLVQNKYLGVIIQCLVTETKTSVSRHIYFFSARGRIDPLVYLDEFLRNSEPVLKRVNRTGNSSSNKQEYQLLKDNLVRSYNKALKKNAPYPIFAIKNGPKSHIGRHLMTSFLSMKGLTELTNVVGNWSDKRASAVARTTYTHQITAIPDHYFALVSRYYAYDPISKEMIALKDETNPIEEWQHIEQLKGSAEGSIRYPAWNGIISQEVLDYLSSYINRRI
# modifications: fused to CIDD pair
# B8: Flp 27: Flp (SEQ ID NO: 1) split into aa 1-27 and 28-423, fused to CIDD pair (protein)
# chain 1: MSQFDILCKTPPKVLVRQFVERFERPS
# chain 2: GEKIASCAAELTYLCWMITHNGTAIKRATFMSYNTIISNSLSFDIVNKSLQFKYKTQKATILEASLKKLIPAWEFTIIPYNGQKHQSDITDIVSSLQLQFESSEEADKGNSHSKKMLKALLSEGESIWEITEKILNSFEYTSRFTKTKTLYQFLFLATFINCGRFSDIKNVDPKSFKLVQNKYLGVIIQCLVTETKTSVSRHIYFFSARGRIDPLVYLDEFLRNSEPVLKRVNRTGNSSSNKQEYQLLKDNLVRSYNKALKKNAPYPIFAIKNGPKSHIGRHLMTSFLSMKGLTELTNVVGNWSDKRASAVARTTYTHQITAIPDHYFALVSRYYAYDPISKEMIALKDETNPIEEWQHIEQLKGSAEGSIRYPAWNGIISQEVLDYLSSYINRRI
# modifications: fused to CIDD pair
# Assays:
# VloxP = experiment: Gibberellin ester (GIB)-induced split-VCre rejoinder, GFP reporter; format: cell-based, human; details: GAI/GID1 CIDD pair; with vs without GIB
# Procedure: FIGS. 42A-42B show results of gene expression of different split-recombinase Cre (SEQ ID NO: 74) or VCre fragments (SEQ ID NO: 16).
# (§1) DNA was transfected into the human embryonic kidney cell line (HEK293FT) using a polyethylenimine (PEI) protocol. Cells were plated onto 48-(2504) or 96-well (1004) plates the day prior to transfection (200,000 cells/mL), such that the cells were 50-70% confluent the day of transfection. Cells were kept in a humidified incubator at 37° C. and 5% CO2 and maintained in DMEM medium (Corning) with 10% Heat Inactivated Fetal Bovine Serum (Life Technologies), 50 U.I./mL penicillin/50 μg/mL streptomycin (Corning), 2 mM glutamine (Corning) and 1 mM sodium pyruvate (Lonza). PEI stocks were made from linear polyethylenimine (Polysciences 23966-2) and were dissolved at a concentration of 0.323 g/L in deionized water with the assistance of concentrated hydrochloric acid and sodium hydroxide and then filtered sterilized (0.24 μm). PEI stocks were stored at −80° C. until use and warmed to room temperature prior to usage. For 48-well plate transfections, DNA (1000 ng, 50 ng/4) was dissolved and brought up to a volume of 50 μL using 0.15 M sodium chloride (NaCl, Fisher Scientific). DNA-NaCl solutions were then mixed with 50 μL of a PEI-NaCl mixture (8 uL PEI: 42 uL NaCl). These solutions were then incubated at room temperature for ten minutes and 25 μL was carefully dropped into individual wells of HEK293FT cells (250 ng DNA/well). Similarly, for 96-well plate transfections, DNA (500 ng, 50 ng/4) was dissolved and brought up to a volume of 25 μL using 0.15 M sodium chloride (NaCl). DNA-NaCl solutions were then mixed with 25 μL of a PEI-NaCl (4 uL PEI: 21 uL NaCl) mixture. These solutions were then incubated at room temperature for ten minutes and 10 μL was carefully dropped into individual wells of HEK293FT cells (100 ng DNA/well). Electronic space-adjustable multichannel pipettors (Integra Biosciences) were utilized throughout the process for rapid aspiration and dispensing of molecular and cellular reagents. A Countess II image-based cell counter (Life Technologies) was used for measuring human cell population densities.
# Rapamycin analog (Clontech A/C heterodimerizer AP21967, 0.5 mM) was used as a 1000× stock for chemical induction experiments. […]
# (§2) Two days post-transfection and after trypsinization (0.05% Trypsin/0.53 mM EDTA, Corning) and resuspension, all HEK293FT cell populations were analyzed using a Becton Dickinson (BD) LSRFortessa SORP flow cytometer with HTS. […]
# [1] = system: pCAG-FRT-Neo-FRT-GFP reporter; experiment: Gibberellin ester (GIB)-induced split-Flp rejoinder, GFP reporter; format: cell-based, human; details: GAI/GID1 CIDD pair; with vs without GIB
# Procedure: Full length FlpO and split Flp vectors were tested for induction of recombinase activity on a pCAG-FRT-Neo-FRT-GFP reporter with and without the presence of gibberellin ester (GIB).
# FIGS. 43A-43E show results of gene expression of different split-recombinase Flp (SEQ ID NO: 1) or B3 fragments (SEQ ID NO: 19). […] FIGS. 43B-43E show the GFP expression levels of different amino acid residue of split sites (S) of Flp amino acid sequence (top; shown in blue) and amino acid residue of split sites (S) of B3 amino acid sequence (below, shown in orange).
# as §1, with “A Countess II image-based cell counter (Life Technologies) was used for measuring human cell population densities.” left out
# as §2
Molecule,GFP expression of split-VCre by split site (S) (VloxP),GFP expression of split-Flp by split site (S) [1]
B1,result in GFP expression in the presence of GIB,
B2,result in GFP expression in the presence of GIB,
B3,result in GFP expression in the presence of GIB,
B4,result in GFP expression in the presence of GIB,
B5,,result in GFP expression in the presence of GIB
B6,,result in GFP expression in the presence of GIB
B7,,result in GFP expression in the presence of GIB
B8,,result in GFP expression in the presence of GIB
